Test results from patent US20200255846A1 (INSTITUTE OF GENETICS AND DEVELOPMENTAL BIOLOGY CHINESE …, published 2020).

Molecular target: nYFP-OsCaM1-1 (rice calmodulin OsCaM1-1 fused with the N-terminal fragment of YFP) (rice, UniProt Q0JNS6 1-149)
Experiment: BiFC, nYFP-OsCaM1-1 and cYFP-GSE5 coexpressed in N. benthamiana leaves
Text: The coding sequence of GSE5 were amplified by specific primers ycGSE5-F/R, fused with the C-terminal fragment of YFP (cYFP), and then subcloned into the pGWB414 vector (Invitrogen) using in-fusion enzyme (Genebank Biosciences Inc, China). The N-terminal fragment of YFP (nYFP) was amplified from pSY736 using the primers YN-736-F and YN-736-R, fused with the OsCaM1-1 gene, and then subcloned into the pGWB414 vector (Invitrogen) using in-fusion enzyme (Genebank Biosciences Inc, China). nYFP-OsCaM1-1 and cYFP-GSE5 constructs were transformed into Agrobacterium strains GV3101. Transient expression of nYFP-OsCaM1-1 and cYFP-GSE5 in Nicotiana benthamiana leaves and fluorescence observation were conducted as described previously (Wang et al., 2016).

B1: cYFP-GSE5 (GSE5, GRAIN SIZE ON CHROMOSOME 5, fused with the C-terminal fragment of YFP) (other)
chain: MGKAARWFRNMWGGGRKEQKGEAPASGGKRWSFGKSSRDSAEAAAAAAAAAAEASGGNAAIARAAEAAWLRSVYADTEREQSKHAIAVAAATAAAADAAVAAAQAAVAVVRLTSKGRSAPVLAATVAGDTRSLAAAAVRIQTAFRGFLAKKALRALKALVKLQALVRGYLVRRQAAATLQSMQALVRAQATVRAHRSGAGAAANLPHLHHAPFWPRRSLQERCAGDDTRSEHGVAAYSRRLSASIESSSYGYDRSPKIVEVDTGRPKSRSSSSRRASSPLLLDAAGCASGGEDWCANSMSSPLPCYLPGGAPPPRIAVPTSRHFPDYDWCALEKARPATAQSTPRYAHAPPTPTKSVCGGGGGGGIHSSPLNCPNYMSNTQSFEAKVRSQSAPKQRPETGGAGAGGGRKRVPLSEVVVVESRASLSGVGMQRSCNRVQEAFNFKTAVVGRLDRSSESGENDRHAFLQRRW
notes: BiFC construct in pGWB414, transiently expressed inside Nicotiana benthamiana leaf cells (not on the cell surface); not shown: C-terminal fragment of YFP (cYFP)
B1: binds.
